Data from US20250043004A1 (Janssen / Centocor, published 2025).

Columns and labels:
[1] = target: T1, T cell receptor Vβ17 on human T cells (human); assay: flow cytometry, human pan T cells, donor 1; antibody has no CD28 arm
T1 construct: whole, on cells; Vβ17+ fraction (about 5%) of human pan T cells, αβ-enriched T cells or M1-stimulated T cells; also called TCR Vβ17; Vb17

[2] = target: T1, T cell receptor Vβ17 on human T cells; assay: flow cytometry, human pan T cells, donor 2; antibody has no CD28 arm
[3] = target: T2, BCMA (human, UniProt Q02223 1-184); assay: flow cytometry, H929 cells; antibody has no CD28 arm
T2 construct: whole, on cells; On NCI-H929 myeloma cells, which also carry CD28; also called B-cell maturation antigen; TNFRSF17
T2 sequence (looked up): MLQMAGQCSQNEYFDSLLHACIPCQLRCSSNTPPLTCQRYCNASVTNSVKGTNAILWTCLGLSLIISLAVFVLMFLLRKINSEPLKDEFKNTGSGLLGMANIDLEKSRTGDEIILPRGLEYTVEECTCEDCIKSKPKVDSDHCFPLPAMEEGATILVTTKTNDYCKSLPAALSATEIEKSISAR

[4] = target: T3, CD28 (human, UniProt P10747 19-220); assay: flow cytometry, human pan T cells, donor 2
T3 construct: whole, on cells; On human pan T cells and on H929 myeloma cells; the assay field says which; also called Cluster of Differentiation 28

[5] = target: T3, CD28; assay: flow cytometry, H929 cells; antibody has no BCMA arm
[6] = target: T3, CD28; assay: flow cytometry, human pan T cells, donor 2; remark: listed apart in the source
Protocol: (§1) Binding assay. […] Post Pan T cell isolation. 0.1×10⁶ cells were seeded per well of a 96 well V-bottom plate. Cells were stained with the fixable violet live/dead stain (L34955, Thermofisher) for 20 mins on ice in dark according to the manufacturer's protocol. Post staining cells were washed with FACS buffer (PBS+2% FBS) by spinning at 1500 rpm for 5 mins. Supernatant was discarded and cells were suspended in 100 μl the respective antibody dilutions with a starting concentration of 5 g/ml and 3-fold serial dilutions. Antibody dilutions were prepared in FACS buffer. Cells were incubated with the antibody dilutions for 30 mins at 37° C. At the end of the incubation period, cells were washed twice with FACS buffer as above followed by staining with PE conjugated Goat polyclonal antibody to human IgG (ab98596, Abcam) at a 1:50 dilution in FACS buffer. Cells were incubated with the secondary antibody for 30 mins on ice. At the end of incubation period the cells were washed with FACS buffer as above. […] Cells were pelleted and resuspended in FACS buffer for acquisition on the NOVOCYTE flow cytometer (ACEA Biosciences). […] Samples were analyzed by gating on the live cells and percentage binding was obtained by subtracting the background fluorescence from the secondary only control.

[7] = target: T2, BCMA; assay: flow cytometry, H929 cells (BCMA+, CD28+); whole-cell EC50, antibody has BCMA and CD28 arms
[8] = target: T3, CD28; assay: as above
[9] = target: T2, BCMA; assay: as above; remark: listed apart in the source
Protocol: (§2) Post Pan T cell isolation. 0.1×10⁶ cells were seeded per well of a 96 well V-bottom plate. Cells were stained with the fixable violet live/dead stain (L34955, Thermofisher) for 20 mins on ice in dark according to the manufacturer's protocol. Post staining cells were washed with FACS buffer (PBS+2% FBS) by spinning at 1500 rpm for 5 mins. Supernatant was discarded and cells were suspended in 100 μl the respective antibody dilutions with a starting concentration of 5 g/ml and 3-fold serial dilutions. Antibody dilutions were prepared in FACS buffer. Cells were incubated with the antibody dilutions for 30 mins at 37° C. At the end of the incubation period, cells were washed twice with FACS buffer as above followed by staining with PE conjugated Goat polyclonal antibody to human IgG (ab98596, Abcam) at a 1:50 dilution in FACS buffer. Cells were incubated with the secondary antibody for 30 mins on ice. At the end of incubation period the cells were washed with FACS buffer as above. […] Cells were pelleted and resuspended in FACS buffer for acquisition on the NOVOCYTE flow cytometer (ACEA Biosciences). For binding assays using the H929 cells, 0.1×10⁶ H929 cells were seeded per well of a 96 well V-bottom plate and stained as above. Samples were analyzed by gating on the live cells and percentage binding was obtained by subtracting the background fluorescence from the secondary only control.

[10] = target: T3, CD28; assay: as above; remark: listed apart in the source
Protocol: as §2

[11] = target: T3, CD28; assay: flow cytometry, human pan T cells
Protocol: Post Pan T cell isolation. 0.1×10⁶ cells were seeded per well of a 96 well V-bottom plate. Cells were stained with the fixable violet live/dead stain (L34955, Thermofisher) for 20 mins on ice in dark according to the manufacturer's protocol. Post staining cells were washed with FACS buffer (PBS+2% FBS) by spinning at 1500 rpm for 5 mins. Supernatant was discarded and cells were suspended in 100 μl the respective antibody dilutions with a starting concentration of 5 g/ml and 3-fold serial dilutions. Antibody dilutions were prepared in FACS buffer. Cells were incubated with the antibody dilutions for 30 mins at 37° C. At the end of the incubation period, cells were washed twice with FACS buffer as above followed by staining with PE conjugated Goat polyclonal antibody to human IgG (ab98596, Abcam) at a 1:50 dilution in FACS buffer. Cells were incubated with the secondary antibody for 30 mins on ice. At the end of incubation period the cells were washed with FACS buffer as above. […] Cells were pelleted and resuspended in FACS buffer for acquisition on the NOVOCYTE flow cytometer (ACEA Biosciences). For binding assays using the H929 cells, 0.1×10⁶ H929 cells were seeded per well of a 96 well V-bottom plate and stained as above. Samples were analyzed by gating on the live cells and percentage binding was obtained by subtracting the background fluorescence from the secondary only control. […]

[12] = target: T4, PSMA (human, UniProt Q04609 1-750); assay: flow cytometry, C4-2B cells
T4 construct: whole, on cells; On LnCaP and C4-2B cells; also called prostate-specific membrane antigen

[13] = target: T4, PSMA; assay: flow cytometry, LnCaP cells
[14] = target: T3, CD28; assay: flow cytometry, human pan T cells, donor 1
Protocol: as §1

[15] = target: T3, CD28; assay: flow cytometry, human pan T cells, donor 1; remark: listed apart in the source

T1 sequence (A0A075B6N1 22-114): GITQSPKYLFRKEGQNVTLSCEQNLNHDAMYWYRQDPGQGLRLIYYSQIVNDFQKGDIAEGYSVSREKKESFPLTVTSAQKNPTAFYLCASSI
T4 sequence (Q04609 whole entry): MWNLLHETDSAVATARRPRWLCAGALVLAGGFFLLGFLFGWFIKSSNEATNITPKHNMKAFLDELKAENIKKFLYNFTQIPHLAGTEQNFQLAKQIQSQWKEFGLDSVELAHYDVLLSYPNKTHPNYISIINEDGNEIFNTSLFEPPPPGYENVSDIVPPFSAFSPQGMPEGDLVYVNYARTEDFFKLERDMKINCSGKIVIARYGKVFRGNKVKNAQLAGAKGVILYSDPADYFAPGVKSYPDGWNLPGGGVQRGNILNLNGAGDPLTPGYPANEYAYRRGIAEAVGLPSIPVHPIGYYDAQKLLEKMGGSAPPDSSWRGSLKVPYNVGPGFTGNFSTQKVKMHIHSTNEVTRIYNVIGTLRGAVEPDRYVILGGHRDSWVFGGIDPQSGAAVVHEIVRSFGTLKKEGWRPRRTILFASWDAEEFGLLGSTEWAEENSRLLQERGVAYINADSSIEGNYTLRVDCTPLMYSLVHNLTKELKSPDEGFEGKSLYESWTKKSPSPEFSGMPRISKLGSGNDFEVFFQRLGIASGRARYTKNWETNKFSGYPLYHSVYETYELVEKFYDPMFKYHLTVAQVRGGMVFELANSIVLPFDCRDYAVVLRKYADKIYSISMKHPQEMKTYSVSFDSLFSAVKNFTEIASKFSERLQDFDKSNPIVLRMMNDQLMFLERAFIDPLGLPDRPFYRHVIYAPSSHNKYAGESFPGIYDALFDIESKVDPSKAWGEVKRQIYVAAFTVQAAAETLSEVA

B1: B17B619 (bispecific antibody, human IgG1)
heavy: QVQLQESGPGLVKPSETLSLTCTVSGYSITSGYFWNWIRQPPGKGLEWIGYISYDGSNNYNPSLKSRVTISRDTSKNQFSLKLSSVTAADTAVYYCASPSPGTGYAVDYWGQGTLVTVSSASTKGPSVFPLAPSSKSTSGGTAALGCLVKDYFPEPVTVSWNSGALTSGVHTFPAVLQSSGLYSLSSVVTVPSSSLGTQTYICNVNHKPSNTKVDKKVEPKSCDKTHTCPPCPAPEAAGGPSVFLFPPKPKDTLMISRTPEVTCVVVSVSHEDPEVKFNWYVDGVEVHNAKTKPREEQYNSTYRVVSVLTVLHQDWLNGKEYKCKVSNKALPAPIEKTISKAKGQPREPQVYVYPPSREEMTKNQVSLTCLVKGFYPSDIAVEWESNGQPENNYKTTPPVLDSDGSFALVSKLTVDKSRWQQGNVFSCSVMHEALHNRFTQKSLSLSPG
light: DIQMTQSPSSLSASVGDRVTITCRSSQSLVHSSGNTYLHWYQQKPGKAPKFLIYKVSNRFSGVPSRFSGSGSGTDFTLTISSLQPEDFATYYCSQSTHVPFTFGQGTKLEIKRTVAAPSVFIFPPSDEQLKSGTASVVCLLNNFYPREAKVQWKVDNALQSGNSQESVTEQDSKDSTYSLSSTLTLSKADYEKHKVYACEVTHQGLSSPVTKSFNRGEC
scFv-Fc: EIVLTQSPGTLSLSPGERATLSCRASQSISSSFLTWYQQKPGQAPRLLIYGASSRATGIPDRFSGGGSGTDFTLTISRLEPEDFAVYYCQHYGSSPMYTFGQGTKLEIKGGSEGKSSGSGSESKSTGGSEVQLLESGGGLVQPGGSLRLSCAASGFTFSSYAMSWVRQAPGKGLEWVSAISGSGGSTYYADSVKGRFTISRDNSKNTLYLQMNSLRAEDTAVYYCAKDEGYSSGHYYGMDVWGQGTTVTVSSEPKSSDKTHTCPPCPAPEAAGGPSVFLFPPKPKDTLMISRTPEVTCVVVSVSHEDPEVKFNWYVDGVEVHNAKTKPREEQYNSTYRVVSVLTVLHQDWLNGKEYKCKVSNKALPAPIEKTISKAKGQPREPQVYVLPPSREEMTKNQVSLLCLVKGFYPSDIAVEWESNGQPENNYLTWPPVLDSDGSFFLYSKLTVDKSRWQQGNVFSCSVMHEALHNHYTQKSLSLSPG
notes: Human IgG1; also called Vβ17-Fab×BCMA-ScFv; Vb17-B17B21-N33S-Fab-RF × BCMB519-LH-scFv; copies: 1 + 1 + 1
**Q.** Which results are given for B1?
**A.** EC50 [1]: 0.159 µg/mL; EC50 [2]: 0.124 µg/mL; EC50 [3]: 0.122 µg/mL

B2: VB28B33 (bispecific antibody)
scFv: not shown
heavy: QVQLQQPGSELVRPGASVKLSCKASGYTFTSYWMHWVKQRHGQGLEWIGNIYPGSGRTNYDEKFKSKGTLTVDTSSRTAYMHLSSLTSEDSAVYYCTREHYGSNSHPMDYWGQGTSVTVSSASTKGPSVFPLAPSSKSTSGGTAALGCLVKDYFPEPVTVSWNSGALTSGVHTFPAVLQSSGLYSLSSVVTVPSSSLGTQTYICNVNHKPSNTKVDKKVEPKSCDKTHTCPPCPAPEAAGGPSVFLFPPKPKDTLMISRTPEVTCVVVSVSHEDPEVKFNWYVDGVEVHNAKTKPREEQYNSTYRVVSVLTVLHQDWLNGKEYKCKVSNKALPAPIEKTISKAKGQPREPQVYTLPPSREEMTKNQVSLSCAVKGFYPSDIAVEWESNGQPENNYKTTPPVLDSDGSFFLVSKLTVDKSRWQQGNVFSCSVMHEALHNRFTQKSLSLSPGK
light: DIQMTQSPSSLSASVGDRVTITCRSSQSLVHSSGNTYLHWYQQKPGKAPKFLIYKVSNRFSGVPSRFSGSGSGTDFTLTISSLQPEDFATYYCSQSTHVPFTFGQGTKLEIKGGSEGKSSGSGSESKSTGGSQVQLQESGPGLVKPSETLSLTCTVSGYSITSGYFWNWIRQPPGKGLEWIGYISYDGSNNYNPSLKSRVTISRDTSKNQFSLKLSSVTAADTAVYYCASPSPGTGYAVDYWGQGTLVTVSSGGSEGKSSGSGSESKSTGGSDIQMTQSPASLSASVGETVTITCGASENIYGSLNWYQRKQGKSPQLLIYGATNLADGMSSRFSGSGSGRQFSLKISSLHPDDVATYYCQNLLSTPYTFGGGTKLELKRTVAAPSVFIFPPSDEQLKSGTASVVCLLNNFYPREAKVQWKVDNALQSGNSQESVTEQDSKDSTYSLSSTLTLSKADYEKHKVYACEVTHQGLSSPVTKSFNRGEC
notes: Null × CD28 × Vβ17, human IgG1; also called Vβ28B33
**Q.** Which results are given for B2?
**A.** EC50 [4]: > 10 µg/mL; EC50 [5]: 1.4 µg/mL; EC50 [6]: > 10 µg/mL

B3: VB28B36 (bispecific antibody)
scFv: not shown
heavy: B2 heavy
light: not shown
notes: Null × CD28 × BCMA, human IgG1; also called Vβ28B36
**Q.** What does the source list for B3?
**A.** EC50 [7]: < 0.0046 µg/mL; EC50 [8]: < 0.0046 µg/mL

B4: VB28B7 (bispecific antibody)
heavy 1: not shown
light 1: DIQMTQSPASLSASVGETVTITCGASENIYGSLNWYQRKQGKSPQLLIYGATNLADGMSSRFSGSGSGRQFSLKISSLHPDDVATYYCQNLLSTPYTFGGGTKLELKRTVAAPSVFIFPPSDEQLKSGTASVVCLLNNFYPREAKVQWKVDNALQSGNSQESVTEQDSKDSTYSLSSTLTLSKADYEKHKVYACEVTHQGLSSPVTKSFNRGEC
heavy 2: not shown
light 2: B4 light 1
notes: also called Vβ28B7; C28B19 × Null × BCMB519
**Q.** What does the source list for B4?
**A.** EC50 [9]: 0.1 µg/mL; EC50 [10]: 0.1 µg/mL; EC50 [11]: 0.06 µg/mL

B5: VB28B31 (bispecific antibody, human IgG1, kappa, L234A L235A)
scFv: not shown
heavy: B2 heavy
light: B4 light 1
notes: PSMA × CD28, human IgG1; also called Vβ28B31
**Q.** What does the source list for B5?
**A.** EC50 [12]: 1.22 µg/mL; EC50 [6]: 0.95 µg/mL; EC50 [13]: 0.15 µg/mL; EC50 [14]: 1.29 µg/mL

B6: VB28B38 (bispecific antibody, human IgG1, kappa, L234A L235A)
scFv: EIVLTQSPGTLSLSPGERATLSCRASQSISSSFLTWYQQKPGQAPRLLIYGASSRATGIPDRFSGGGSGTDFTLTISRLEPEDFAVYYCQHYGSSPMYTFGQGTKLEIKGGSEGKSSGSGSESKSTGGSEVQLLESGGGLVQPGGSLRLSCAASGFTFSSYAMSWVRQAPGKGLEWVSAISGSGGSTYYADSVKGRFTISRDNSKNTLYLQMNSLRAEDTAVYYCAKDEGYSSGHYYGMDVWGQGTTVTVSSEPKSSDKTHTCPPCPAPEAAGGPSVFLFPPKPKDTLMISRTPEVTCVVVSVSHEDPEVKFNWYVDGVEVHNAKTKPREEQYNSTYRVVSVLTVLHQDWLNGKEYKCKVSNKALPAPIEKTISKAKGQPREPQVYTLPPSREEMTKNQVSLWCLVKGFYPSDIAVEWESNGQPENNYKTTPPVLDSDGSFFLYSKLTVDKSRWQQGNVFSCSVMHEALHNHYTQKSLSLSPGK
heavy: B2 heavy
light: B4 light 1
notes: BCMA × CD28, human IgG1; also called Vβ28B38
**Q.** What does the source list for B6?
**A.** EC50 [15]: 1.27 µg/mL; EC50 [4]: 1.08 µg/mL; EC50 [7]: < 0.0046 µg/mL; EC50 [8]: < 0.0046 µg/mL

B7: VB28B40 (bispecific antibody, human IgG1, kappa, L234A L235A)
scFv: DIQMTQSPSSLSASVGDRVTITCRSSQSLVHSSGNTYLHWYQQKPGKAPKFLIYKVSNRFSGVPSRFSGSGSGTDFTLTISSLQPEDFATYYCSQSTHVPFTFGQGTKLEIKGGSEGKSSGSGSESKSTGGSQVQLQESGPGLVKPSETLSLTCTVSGYSITSGYFWNWIRQPPGKGLEWIGYISYDGSNNYNPSLKSRVTISRDTSKNQFSLKLSSVTAADTAVYYCASPSPGTGYAVDYWGQGTLVTVSSEPKSSDKTHTCPPCPAPEAAGGPSVFLFPPKPKDTLMISRTPEVTCVVVSVSHEDPEVKFNWYVDGVEVHNAKTKPREEQYNSTYRVVSVLTVLHQDWLNGKEYKCKVSNKALPAPIEKTISKAKGQPREPQVYTLPPSREEMTKNQVSLWCLVKGFYPSDIAVEWESNGQPENNYKTTPPVLDSDGSFFLYSKLTVDKSRWQQGNVFSCSVMHEALHNHYTQKSLSLSPGK
heavy: not shown
light: not shown
notes: Vβ17 × null × BCMA, human IgG1; not used; also called Vβ28B40
**Q.** B7 was tested. Which EC50 [1] did it give?
**A.** The EC50 was 1.12 µg/mL.

**Q.** And the EC50 [2]?
**A.** The EC50 was 1.21 µg/mL.

**Q.** And the EC50 [3]?
**A.** The EC50 was 0.121 µg/mL.
